# Assay: Specific activity measurement of purified isoprene synthase variants (4 mM DMAPP, 30 C, GC-MS headspace)
# Assay type: biochemical
# Details: 50 mM NaCl, 50 mM Tris pH = 8, 30° C.; for Variant S.A./WT S.A.: ratio to WT
# Procedure: 1. Initial Purification—Resuspend the pellet in 3 ml of fresh lysis buffer. Break cells by passing them through the French Press using the small cylinder. Centrifuge samples for 1 hour at 30,000×G and collect the supernatant. Retain pellet in order to test for presence of insoluble protein. Pre equilibrate 0.5 mL Ni Sepharose 6 Fast Flow resin (Amersham) in a 20 ml disposable column with 10 mL of Ni wash buffer. Add protein to column and shake for 60 min at 4 C to bind protein. Elute protein with 2.5 mL Ni elution buffer.
# 2. Buffer Exchange—Equilibrate a PD-10 column (GE Healthcare) with 25 mL of PD-10 buffer. Load protein on to column and elute with 3.5 mL of PD-10 buffer.
# 10 uL of purified enzyme was incubated with 4 mM DMAPP, 50 mM MgCl2 in a buffer containing 50 mM Tris and 50 mM NaCl (pH=8) to a final volume of 100 uL for 15 min. at 30 C in gas tight 2 mL vials. Reactions were terminated with the addition of 100 uL of […] EDTA, pH=8. Samples were analyzed by GC-MS to determine the concentration of isoprene in the headspace of the vials. All specific activity measurements were performed in triplicate.
# Protein concentration was determined by measuring the absorbance of each protein solution at 280 nm on a Helwlett Pachard 8453 UV-Vis spectrophotometer and converting the absorbance to protein concentration using the extinction coefficient as determined on the Expasy website (Gasteiger E., Hoogland C., Gattiker A., Duvaud S., Wilkins M. R., Appel R. D., Bairoch A.; Protein Identification and Analysis Tools on the ExPASy Server; (In) John M. Walker (ed): The Proteomics Protocols Handbook, Humana Press (2005). pp. 571-607). The protein concentrations of isoprene synthase variants assayed for KM and kcat determination were verified by comparative gel electrophoresis of a dilution series of each protein (FIG. 61).
Molecule,S.A.,Variant S.A./WT S.A.
"NSC: P. alba MEA A453N G491S T536C (+) TEV; pDW107, SEQ ID NO: 81 (protein, TEV site) MEARRSANYEPNSWDYDYLLSSDTDESIEVYKDKAKKLEAEVRREINNEKAEFLTLLELIDNVQRLGLGYRFESDIRGALDRFVSSGGFDAVTKTSLHGTALSFRLLRQHGFEVSQEAFSGFKDQNGNFLENLKEDIKAILSLYEASFLALEGENILDEAKVFAISHLKELSEEKIGKELAEQVNHALELPLHRRTQRLEAVWSIEAYRKKEDANQVLLELAILDYNMIQSVYQRDLRETSRWWRRVGLATKLHFARDRLIESFYWAVGVAFEPQYSDCRNSVAKMFSFVTIIDDIYDVYGTLDELELFTDAVERWDVNAINDLPDYMKLCFLALYNTINEIAYDNLKDKGENILPYLTKAWADLCNAFLQEAKWLYNKSTPTFDDYFGNAWKSSSGPLQLVFAYFAVVQNIKKEEIENLQKYHDTISRPSHIFRLCNDLASASAEIARGETNNSVSCYMRTKGISEELATESVMNLIDETWKKMNKEKLSGSLFAKPFVETAINLARQSHCTYHNGDAHTSPDELTRKRVLSVICEPILPFERENLYFQGLEHHHHHH",390 ± 20 nmol/mg/min,0.8
"NSPC: P. alba MEA A453N G491S L494P T536C (+) TEV; pDW109, SEQ ID NO: 85 (protein, TEV site) MEARRSANYEPNSWDYDYLLSSDTDESIEVYKDKAKKLEAEVRREINNEKAEFLTLLELIDNVQRLGLGYRFESDIRGALDRFVSSGGFDAVTKTSLHGTALSFRLLRQHGFEVSQEAFSGFKDQNGNFLENLKEDIKAILSLYEASFLALEGENILDEAKVFAISHLKELSEEKIGKELAEQVNHALELPLHRRTQRLEAVWSIEAYRKKEDANQVLLELAILDYNMIQSVYQRDLRETSRWWRRVGLATKLHFARDRLIESFYWAVGVAFEPQYSDCRNSVAKMFSFVTIIDDIYDVYGTLDELELFTDAVERWDVNAINDLPDYMKLCFLALYNTINEIAYDNLKDKGENILPYLTKAWADLCNAFLQEAKWLYNKSTPTFDDYFGNAWKSSSGPLQLVFAYFAVVQNIKKEEIENLQKYHDTISRPSHIFRLCNDLASASAEIARGETNNSVSCYMRTKGISEELATESVMNLIDETWKKMNKEKLSGSPFAKPFVETAINLARQSHCTYHNGDAHTSPDELTRKRVLSVICEPILPFERENLYFQGLEHHHHHH",502 ± 6 nmol/mg/min,1.1
